In patent publication US20200031892A1, “COMPOSITION COMPRISING NEUREGULIN FOR ORGAN PERFUSION, PRESERVATION OR REPERFUSION, AND USE THEREOF” (Zensun (Shanghai) Science & Technology, Co., Ltd., priority 2007, published 2020):

Key:
[1] = system: cardiomyocytes from myocardial infarcted rats; test: Relaxation of cardiomyocytes isolated from myocardial infarcted rats treated with neuregulin by osmotic pump; format: in vivo, rat; details: myocytes from MI rats treated with neuregulin compared with MI rats treated with vehicle
Description: Wistar male rats (Shanghai Animal Center of Chinese Academy of Science), which weighed 200±20 g, were anesthetized by intraperitoneally injecting 100 mg/kg (drug/body weight) of ketamine. The neck and chest were depilated and sanitized. An incision Was made in the middle front neck to expose the tracheae. An 18G catheter overneedle was inserted into the tracheae between the 3rd and 5th cartilage of tracheae. After the needle was drawn out, a plastic cannula was pushed into the trachea 1-2 cm and fixed to connect the Rodent Ventilator (SAR-830/P ventilator—Inspiratory flow rate, 1 ml/100 g/breath; Respiratory rate, 60 breaths/min). Another incision was made on the left front chest. The skin was blunt dissected to expose the fourth and fifth rib, then the fourth rib was cut by elbowed mosquito forceps. The ventilator (as described above) was linked to the cannula and turned on, and the heart was exposed to check the status of lung and heart. The pericardium was rived off to identify the left atria and the pulmonary arterious cone after the heart was exteriorized through the incision. The left ventricle anterior descending coronary artery between them was ligated tight with 6/0 medical suture before the heart was replaced into the thorax. The thoracic wall was stitched. The ventilator was blocked to full fill the lung. […]

[2] = system: patients with stable chronic heart failure; test: Haemodynamics in patients with stable chronic heart failure after continuous intravenous infusion of neuregulin; format: in vivo, human; details: 0.2 μg/kg/hour i.v. infusion for 6 hours
Description: 6 patients with stable chronic heart failure were treated with continuous intravenous infusion of neuregulin at 0.2 μg/kg/hour (drug weight/body weight/hour) for 6 hours. A baseline right heart catheterisation was performed and Swan Ganz catheter left in situ to monitor haemodynamics for 24 hours.

B1: NRG: NRG having the sequence of SEQ ID NO:1, which corresponds to amino acids 177-237 of human NRG-1 (protein, listed as Homo sapiens)
chain: SHLVKCAEKEKTFCVNGGECFMVKDLSNPSRYLCKCPNEFTGDRCQNYVMASFYKAEELYQ
[1]
  relaxation of myocytes (time to relax to half of the maximum length, FIG. 1): relax much faster
[2]; 2 hours after infusion vs baseline 3.7±1.0 L/min
  increase of average cardiac output: 29.7%
[2]; after infusion (baseline 1679.3±336.3)
  systemic vascular resistance (SVR): 1199.5±127.6 dynes-sec-cm^−5
[2]; at 2 hours after infusion (baseline 3.7±1.0)
  average cardiac output: 4.8 ± 0.8 L/min
[2]; vs baseline 1679.3±336.3
  fall of systemic vascular resistance (SVR): 29%
